Experiment [1] deals with T1, glucose-regulated protein (GRP78) (Homo sapiens, UniProt P11021 19-654).
T1 construct: Endogenous GRP78: on the membrane of human umbilical vein endothelial cells (HUVEC) or tumor cell lines in FACS and cell ELISA; from HUVEC lysate in the immunoprecipitation and Western blot experiments; also called GRP78 receptor; ADOPeps receptor
Description: cell ELISA on endothelial cells, peptide 2 hours, then competitor anti-GRP78 antibody at 2 ug/ml. As for the experimental part: Endothelial cells were incubated for 2 hours with increasing concentrations of ADOPeps, following which the cells were incubated for another 1 hour with the 2 μg/ml of anti-GRP78 antibody and the amount of bound antibody on EC was detected using an ELISA reader.
Endothelial cells (20,000 per well) were seeded in 96 well plates for 24 hours in the presence of the complete medium. Plates were washed with PBS over night and rehydrated with PBS, 0.1% Na Azide and 5% FCS. ADOPep1, ADOPep2 and ADOPep3 were added to washed plates for 2 hours at room temperature at concentrations of 0.01, 0.1 and 1 microgram per ml. Anti-GRP78 antibody (goat polyclona IgG, Santa Cruz Biotechnology, Calif., USA) was added to the plates for 1 hour at room temperature at a concentration of 2 micrograms/ml per well. After washing, bound anti-GRP78 antibody was detected by incubation with anti-goat IgG Peroxidase conjugated (Jackson Immuneresearch Laboratories, PA, USA). After 5 washes with PBS-0.1% Tween 20, 100 μl/well of TMB+ Substrate-Chromogen (DAKOCytomation, CA, USA) was added for a maximum of 30 minutes. Reaction was stopped with 1N HCl. Color developed was determined by an ELISA reader at 450 nm.

Experiment [2] addresses T1, glucose-regulated protein (GRP78). Briefly: endothelial cells, normoxia, peptide at 0.01, 0.1 or 1 ng/ml for 2 hours, then competitor biotinylated ADOPep1 at 2 ug/ml, HRP-streptavidin. As for the experimental part:
Endothelial cells were incubated for 2 hours under normoxia conditions in the presence of increasing concentrations (0.01, 0.1 or 1 ng/ml) of peptides having the amino acid sequences corresponding to Motif A (HWRRP; SEQ ID NO:7), Motif B (HWRRA; SEQ ID NO:8), Motif C (AHLLP; SEQ ID NO:6) or non-biotinylated ADOPep1 (SEQ ID NO:2) and then were incubated for 1 hour with biotinylated ADOPep1 (2 μg/ml) and the binding of biotinylated ADOPep1 to endothelial cells was determined using HRP-streptavidin.

T1 sequence (P11021 19-654 limits assumed): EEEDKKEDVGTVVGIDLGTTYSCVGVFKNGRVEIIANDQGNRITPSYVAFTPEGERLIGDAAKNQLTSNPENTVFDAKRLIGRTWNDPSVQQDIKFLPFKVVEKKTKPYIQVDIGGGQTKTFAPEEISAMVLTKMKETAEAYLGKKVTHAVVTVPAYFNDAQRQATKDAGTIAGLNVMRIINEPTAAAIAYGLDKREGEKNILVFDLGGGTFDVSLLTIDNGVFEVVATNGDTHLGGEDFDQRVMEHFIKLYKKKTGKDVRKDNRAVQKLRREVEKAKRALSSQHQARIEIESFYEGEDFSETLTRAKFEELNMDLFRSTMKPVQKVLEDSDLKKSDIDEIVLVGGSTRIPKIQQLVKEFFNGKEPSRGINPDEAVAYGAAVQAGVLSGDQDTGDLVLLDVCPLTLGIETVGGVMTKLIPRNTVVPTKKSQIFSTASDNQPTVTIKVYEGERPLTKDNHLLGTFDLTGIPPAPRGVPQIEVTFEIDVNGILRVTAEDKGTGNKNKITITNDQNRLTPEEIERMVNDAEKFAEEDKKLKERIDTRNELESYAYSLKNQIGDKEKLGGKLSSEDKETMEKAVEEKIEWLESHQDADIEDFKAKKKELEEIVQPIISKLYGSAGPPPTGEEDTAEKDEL

As for AVTLENFLHWRR [ADOPep3], the “percent inhibition of binding of anti-GRP78 antibody” value (shortened to “percent inhibition”) in experiment [1] is no more than 50%.

B1: ADOPep1 (peptide)
peptide: HWRRAHLLPRLP
notes: Unlabelled synthetic peptide (SynPep); also called non-biotinylated ADOPep1
On to B1, for which the “percent inhibition” value in experiment [1] is no more than 50%.
For HWRRA (also called peptide motif B) [Motif B peptide (HWRRA)], the binding result in experiment [2] is “binds”.
Consider ENFLHWRRAHLL [ADOPep2], for which the “percent inhibition” value in experiment [1] is no more than 50%.

The record behind these values is patent US20120219498A1 (RAMOT AT TEL AVIV UNIVERSITY, published 2012).
